Data: patent US20140072613A1, “Compositions and Methods for Treating Cutaneous Scarring” (priority 2012, published 2014)

What was measured:
Test in all cases: biochemical
Assay type in all cases: biochemical
266 human kinases [1] = biological target: T1, 266 human kinases (Homo sapiens, UniProt Q8IYT8); settings: ULK2(h); 100 μM
T1 sequence (Q8IYT8 1-1036): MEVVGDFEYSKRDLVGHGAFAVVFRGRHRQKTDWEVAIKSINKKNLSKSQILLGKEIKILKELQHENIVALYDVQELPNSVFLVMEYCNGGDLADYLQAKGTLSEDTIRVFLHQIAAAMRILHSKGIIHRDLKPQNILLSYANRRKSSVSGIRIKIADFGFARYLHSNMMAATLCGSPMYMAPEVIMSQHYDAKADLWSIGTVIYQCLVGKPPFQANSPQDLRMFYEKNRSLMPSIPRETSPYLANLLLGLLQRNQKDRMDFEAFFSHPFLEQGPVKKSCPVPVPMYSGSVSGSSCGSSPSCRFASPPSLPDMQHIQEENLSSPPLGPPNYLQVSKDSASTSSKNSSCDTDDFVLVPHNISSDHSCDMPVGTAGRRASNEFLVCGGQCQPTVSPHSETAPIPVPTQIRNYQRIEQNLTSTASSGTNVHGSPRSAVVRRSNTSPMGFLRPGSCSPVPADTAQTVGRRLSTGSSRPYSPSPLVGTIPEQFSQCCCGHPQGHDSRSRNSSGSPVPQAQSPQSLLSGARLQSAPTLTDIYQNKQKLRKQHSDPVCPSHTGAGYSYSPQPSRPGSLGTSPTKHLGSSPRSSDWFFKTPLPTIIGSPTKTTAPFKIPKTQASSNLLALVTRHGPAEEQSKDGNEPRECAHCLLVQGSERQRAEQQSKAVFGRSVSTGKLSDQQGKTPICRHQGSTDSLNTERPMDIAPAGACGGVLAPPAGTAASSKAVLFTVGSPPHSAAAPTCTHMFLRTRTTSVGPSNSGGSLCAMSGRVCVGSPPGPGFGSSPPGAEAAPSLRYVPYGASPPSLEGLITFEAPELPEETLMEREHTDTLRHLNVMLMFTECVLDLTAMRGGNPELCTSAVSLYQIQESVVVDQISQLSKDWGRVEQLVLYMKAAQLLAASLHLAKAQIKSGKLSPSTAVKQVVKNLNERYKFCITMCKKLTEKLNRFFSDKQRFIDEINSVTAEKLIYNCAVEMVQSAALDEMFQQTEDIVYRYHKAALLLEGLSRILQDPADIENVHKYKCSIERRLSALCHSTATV
Procedure, shortened: (§1)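 Inhibition was judged from reduced transfer of labelled phosphate from ATP to a positively charged substrate, which was captured on a negatively charged membrane and quantified by scintillation counting against a 100% activity control.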

266 human kinases [2] = biological target: 266 human kinases (Homo sapiens, UniProt Q8TDX7); settings: NEK7(h); 100 μM
Procedure, shortened: as §1

266 human kinases [3] = biological target: 266 human kinases (Homo sapiens, UniProt P08581, Y1230H); settings: Met(Y1248H)(h); 100 μM
Procedure, shortened: as §1

266 human kinases [4] = biological target: T2, 266 human kinases (Homo sapiens, UniProt P54753); settings: EphB3(h); 100 μM
T2 sequence (P54753 34-998): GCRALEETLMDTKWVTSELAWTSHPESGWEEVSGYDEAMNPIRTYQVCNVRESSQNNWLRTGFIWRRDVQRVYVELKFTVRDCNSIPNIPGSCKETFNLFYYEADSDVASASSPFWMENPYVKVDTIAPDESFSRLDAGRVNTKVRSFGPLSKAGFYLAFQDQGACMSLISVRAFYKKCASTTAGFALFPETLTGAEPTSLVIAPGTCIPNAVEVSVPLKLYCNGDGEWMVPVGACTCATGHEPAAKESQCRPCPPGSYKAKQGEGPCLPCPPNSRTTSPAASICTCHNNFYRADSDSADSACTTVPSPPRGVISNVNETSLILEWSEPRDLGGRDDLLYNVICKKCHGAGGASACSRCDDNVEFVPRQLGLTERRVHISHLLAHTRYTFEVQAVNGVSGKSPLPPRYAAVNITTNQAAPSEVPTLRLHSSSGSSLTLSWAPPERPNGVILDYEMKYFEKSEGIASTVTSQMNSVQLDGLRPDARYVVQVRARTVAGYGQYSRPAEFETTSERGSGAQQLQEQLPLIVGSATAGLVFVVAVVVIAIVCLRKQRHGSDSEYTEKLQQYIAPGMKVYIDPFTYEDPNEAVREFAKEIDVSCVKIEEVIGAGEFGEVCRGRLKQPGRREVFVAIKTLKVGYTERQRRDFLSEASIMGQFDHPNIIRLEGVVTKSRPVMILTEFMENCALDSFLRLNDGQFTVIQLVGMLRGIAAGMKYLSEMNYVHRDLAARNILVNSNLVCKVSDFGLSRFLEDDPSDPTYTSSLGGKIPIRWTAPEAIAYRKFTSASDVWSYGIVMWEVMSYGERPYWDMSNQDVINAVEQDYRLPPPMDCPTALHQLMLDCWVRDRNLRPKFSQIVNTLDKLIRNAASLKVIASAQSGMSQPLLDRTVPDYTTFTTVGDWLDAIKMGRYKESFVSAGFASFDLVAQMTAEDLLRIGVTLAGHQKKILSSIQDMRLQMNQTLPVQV
Procedure, shortened: as §1

266 human kinases [5] = biological target: 266 human kinases (Homo sapiens, UniProt P05771); settings: PKCβI(h); 100 μM
Procedure, shortened: as §1

266 human kinases [6] = biological target: 266 human kinases (Homo sapiens, UniProt P42684); settings: Arg(h); 100 μM
Procedure, shortened: as §1

266 human kinases [7] = biological target: 266 human kinases (Homo sapiens, UniProt P31751); settings: PKBβ(h); 100 μM
Procedure, shortened: as §1

266 human kinases [8] = biological target: 266 human kinases (Homo sapiens, UniProt Q13882); settings: BRK(h); 100 μM
Procedure, shortened: as §1

266 human kinases (Homo sapiens, UniProt P05771), sequence (P05771 whole entry): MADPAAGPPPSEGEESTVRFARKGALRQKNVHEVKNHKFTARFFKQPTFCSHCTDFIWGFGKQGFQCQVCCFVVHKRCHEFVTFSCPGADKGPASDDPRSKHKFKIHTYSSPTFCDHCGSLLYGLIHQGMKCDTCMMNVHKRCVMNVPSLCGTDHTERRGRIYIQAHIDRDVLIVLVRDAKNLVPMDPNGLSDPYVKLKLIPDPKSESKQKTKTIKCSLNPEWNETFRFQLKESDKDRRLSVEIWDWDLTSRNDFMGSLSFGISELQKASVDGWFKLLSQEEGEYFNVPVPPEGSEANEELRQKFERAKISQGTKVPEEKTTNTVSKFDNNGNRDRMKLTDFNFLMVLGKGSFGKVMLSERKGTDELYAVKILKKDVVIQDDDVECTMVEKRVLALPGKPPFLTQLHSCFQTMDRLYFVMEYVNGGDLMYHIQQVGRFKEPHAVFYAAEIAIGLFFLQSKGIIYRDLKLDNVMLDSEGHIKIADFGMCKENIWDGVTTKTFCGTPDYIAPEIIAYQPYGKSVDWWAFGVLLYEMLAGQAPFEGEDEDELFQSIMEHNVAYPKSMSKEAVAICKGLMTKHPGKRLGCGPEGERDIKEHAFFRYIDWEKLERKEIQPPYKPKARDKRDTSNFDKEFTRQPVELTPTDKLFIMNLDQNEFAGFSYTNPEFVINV
266 human kinases (Homo sapiens, UniProt Q8TDX7), sequence (Q8TDX7 whole entry): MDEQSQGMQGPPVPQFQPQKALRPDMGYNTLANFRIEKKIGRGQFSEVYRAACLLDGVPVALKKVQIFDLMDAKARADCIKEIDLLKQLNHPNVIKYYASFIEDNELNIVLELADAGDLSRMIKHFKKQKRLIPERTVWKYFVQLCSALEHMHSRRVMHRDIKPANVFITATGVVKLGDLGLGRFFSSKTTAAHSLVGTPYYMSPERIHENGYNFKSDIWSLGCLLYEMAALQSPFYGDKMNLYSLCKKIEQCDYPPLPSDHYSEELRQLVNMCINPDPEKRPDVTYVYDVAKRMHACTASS
266 human kinases (Homo sapiens, UniProt P31751), sequence (P31751 whole entry): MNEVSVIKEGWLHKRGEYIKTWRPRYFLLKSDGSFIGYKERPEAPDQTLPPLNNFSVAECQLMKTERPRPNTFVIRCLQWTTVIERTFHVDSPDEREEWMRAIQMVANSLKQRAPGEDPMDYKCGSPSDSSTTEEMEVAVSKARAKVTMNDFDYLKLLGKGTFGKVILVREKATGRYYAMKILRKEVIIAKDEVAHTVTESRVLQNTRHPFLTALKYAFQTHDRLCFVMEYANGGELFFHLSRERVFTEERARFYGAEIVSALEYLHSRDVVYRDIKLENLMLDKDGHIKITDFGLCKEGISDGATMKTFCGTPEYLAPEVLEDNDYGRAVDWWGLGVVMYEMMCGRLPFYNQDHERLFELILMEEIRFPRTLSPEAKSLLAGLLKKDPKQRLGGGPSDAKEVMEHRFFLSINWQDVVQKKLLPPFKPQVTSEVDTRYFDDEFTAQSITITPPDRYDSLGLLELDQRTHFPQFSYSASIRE
266 human kinases (Homo sapiens, UniProt P42684), sequence (P42684 whole entry): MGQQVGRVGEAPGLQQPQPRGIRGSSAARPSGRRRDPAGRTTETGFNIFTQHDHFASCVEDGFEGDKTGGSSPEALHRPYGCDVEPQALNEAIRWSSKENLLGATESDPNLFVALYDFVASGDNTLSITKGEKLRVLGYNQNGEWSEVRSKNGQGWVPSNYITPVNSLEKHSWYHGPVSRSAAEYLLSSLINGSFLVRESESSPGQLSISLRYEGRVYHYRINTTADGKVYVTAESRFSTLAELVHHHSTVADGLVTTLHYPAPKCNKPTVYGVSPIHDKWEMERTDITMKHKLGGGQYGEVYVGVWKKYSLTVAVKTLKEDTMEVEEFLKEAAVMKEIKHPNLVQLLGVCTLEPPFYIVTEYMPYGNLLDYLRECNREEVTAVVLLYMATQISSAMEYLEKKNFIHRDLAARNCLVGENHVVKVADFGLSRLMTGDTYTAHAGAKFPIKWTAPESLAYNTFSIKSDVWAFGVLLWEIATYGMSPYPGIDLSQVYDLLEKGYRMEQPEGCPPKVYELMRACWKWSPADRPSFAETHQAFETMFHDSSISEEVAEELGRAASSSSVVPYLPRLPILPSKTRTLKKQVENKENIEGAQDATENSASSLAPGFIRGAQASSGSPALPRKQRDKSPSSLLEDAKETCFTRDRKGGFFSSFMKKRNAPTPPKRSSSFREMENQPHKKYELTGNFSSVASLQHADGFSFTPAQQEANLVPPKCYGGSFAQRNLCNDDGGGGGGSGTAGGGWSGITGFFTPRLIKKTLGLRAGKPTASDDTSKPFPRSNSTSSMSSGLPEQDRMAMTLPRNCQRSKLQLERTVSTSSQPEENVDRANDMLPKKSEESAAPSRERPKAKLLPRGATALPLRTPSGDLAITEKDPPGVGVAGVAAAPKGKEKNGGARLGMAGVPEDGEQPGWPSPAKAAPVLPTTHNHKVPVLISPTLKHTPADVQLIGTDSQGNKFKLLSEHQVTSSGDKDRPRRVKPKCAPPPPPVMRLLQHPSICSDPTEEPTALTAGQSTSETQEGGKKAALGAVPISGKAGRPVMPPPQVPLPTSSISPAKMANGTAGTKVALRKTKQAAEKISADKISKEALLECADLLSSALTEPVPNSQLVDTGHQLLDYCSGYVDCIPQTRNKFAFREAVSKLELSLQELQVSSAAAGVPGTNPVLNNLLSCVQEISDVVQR
266 human kinases (Homo sapiens, UniProt Q13882), sequence (Q13882 whole entry): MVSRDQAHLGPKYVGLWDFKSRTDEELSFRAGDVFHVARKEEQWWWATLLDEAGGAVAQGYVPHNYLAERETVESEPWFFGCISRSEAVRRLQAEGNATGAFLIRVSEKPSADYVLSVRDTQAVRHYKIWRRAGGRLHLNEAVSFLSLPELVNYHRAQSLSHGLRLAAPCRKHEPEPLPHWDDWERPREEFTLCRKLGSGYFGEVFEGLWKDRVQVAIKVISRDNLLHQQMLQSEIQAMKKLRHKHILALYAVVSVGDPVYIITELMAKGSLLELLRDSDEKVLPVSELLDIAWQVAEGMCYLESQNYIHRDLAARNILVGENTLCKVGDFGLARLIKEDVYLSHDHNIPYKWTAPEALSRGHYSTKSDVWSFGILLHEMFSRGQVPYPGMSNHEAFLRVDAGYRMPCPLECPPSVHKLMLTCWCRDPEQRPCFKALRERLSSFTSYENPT

Sequence	% activity (266 human kinases [1]) [%]	% activity (266 human kinases [2]) [%]	% activity (266 human kinases [3]) [%]	% activity (266 human kinases [4]) [%]	% activity (266 human kinases [5]) [%]	% activity (266 human kinases [6]) [%]	% activity (266 human kinases [7]) [%]	% activity (266 human kinases [8]) [%]
HRRIKAWLKKIKALARQLGVAA (mammal) [MMI-0500]	124	89	126	79	1	22	21	41
YARAAARQARAKALNRQLGVA (mammal) [MMI-0200]	132	96	153	128	98	82	250	127
